How the values were obtained:
[1] = molecular target: biotinylated soluble human PDGFRα (UniProt P16234); test: cell-based binding (staining of transfected 293E cells with soluble PDGFRα and 13H11 scFv); conditions: read off a plot
[2] = molecular target: HCMV gHgLgO trimer with full-length gH on HEK293-6E cells, gO Y240A (human cytomegalovirus, strain AD169 | human cytomegalovirus, strain TR) (UniProt P12824); test: flow cytometry on cells; HEK293-6E cells cotransfected with full-length gH, gL and gO (wt or mutant) stained with 4 μg/ml biotinylated PDGFRα in PBS with 0.5% BSA, room temperature, half an hour, then Alexa Fluor 647-streptavidin; PDGFRα staining set against staining by the gH antibody 13H11 and compared with wt
[3] = molecular target: HCMV gHgLgO trimer with full-length gH on HEK293-6E cells, gO K359A (human cytomegalovirus, strain AD169 | human cytomegalovirus, strain TR) (UniProt P12824); test: as above
[4] = molecular target: HCMV gHgLgO trimer with full-length gH on HEK293-6E cells, gO R214A (human cytomegalovirus, strain AD169 | human cytomegalovirus, strain TR) (UniProt P12824); test: as above
[5] = molecular target: HCMV gHgLgO trimer with full-length gH on HEK293-6E cells, gO R236A (human cytomegalovirus, strain AD169 | human cytomegalovirus, strain TR) (UniProt P12824); test: as above
[6] = molecular target: HCMV gHgLgO trimer with full-length gH on HEK293-6E cells, gO R236N/P238S (human cytomegalovirus, strain AD169 | human cytomegalovirus, strain TR) (UniProt P12824); test: as above

Substance | other: ratio of PDGFRα/13H11 binding [1] | other results
HCMV gHgLgO trimer with full-length gH on the surface of HEK293-6E cells, gO wild type (from UniProt P12824;P16832) gO:R239A | 1.1 | 
HCMV gHgLgO trimer with full-length gH on the surface of HEK293-6E cells, gO wild type (from UniProt P12824;P16832) gO:F138A | 0.82 | 
HCMV gHgLgO trimer with full-length gH on the surface of HEK293-6E cells, gO wild type (from UniProt P12824;P16832) gO:Q117A | 0.81 | 
HCMV gHgLgO trimer with full-length gH on the surface of HEK293-6E cells, gO wild type (from UniProt P12824;P16832) gO:K123A | 0.87 | 
HCMV gHgLgO trimer with full-length gH on the surface of HEK293-6E cells, gO wild type (from UniProt P12824;P16832) gO:F113N | 0.73 | 
HCMV gHgLgO trimer with full-length gH on the surface of HEK293-6E cells, gO wild type (from UniProt P12824;P16832) gO:R338A | 0.95 | 
HCMV gHgLgO trimer with full-length gH on the surface of HEK293-6E cells, gO wild type (from UniProt P12824;P16832) gO:P343A | 1.2 | 
HCMV gHgLgO trimer with full-length gH on the surface of HEK293-6E cells, gO wild type (from UniProt P12824;P16832) gO:R349A | 1 | 
HCMV gHgLgO trimer with full-length gH on the surface of HEK293-6E cells, gO wild type (from UniProt P12824;P16832) gO:F113A | 0.75 | 
HCMV gHgLgO trimer with full-length gH on the surface of HEK293-6E cells, gO wild type (from UniProt P12824;P16832) gO:E346A | 1.2 | 
HCMV gHgLgO trimer with full-length gH on the surface of HEK293-6E cells, gO wild type (from UniProt P12824;P16832) gO:T116A | 0.62 | 
biotinylated soluble human PDGFRα (from UniProt P16234 24-528) (receptor) |  | percent of wild-type binding [2]: < 33 % of wt; percent of wild-type binding [3]: < 33 % of wt; percent of wild-type binding [4]: < 33 % of wt; percent of wild-type binding [5]: < 33 % of wt; percent of wild-type binding [6]: 50 % of wt
HCMV gHgLgO trimer with full-length gH on the surface of HEK293-6E cells, gO wild type (from UniProt P12824;P16832) gO:R119A | 0.9 | 
HCMV gHgLgO trimer with full-length gH on the surface of HEK293-6E cells, gO wild type (from UniProt P12824;P16832) gO:K194A | 1.1 | 
HCMV gHgLgO trimer with full-length gH on the surface of HEK293-6E cells, gO wild type (from UniProt P12824;P16832) gO:Y371A | 1.1 | 
HCMV gHgLgO trimer with full-length gH on the surface of HEK293-6E cells, gO wild type (from UniProt P12824;P16832) gO:R232A | 0.96 | 

Reference: paper PMC8546573
